The results in this text go back to PMC8561734, “Structural basis for SdgB- and SdgA-mediated glycosylation of staphylococcal adhesive proteins” (Acta Crystallographica. Section D, Structural Biology, 2021).

Sequences and labels used below:
T1: SdgB (glycosyltransferase, Staphylococcus aureus USA300) (Staphylococcus aureus (strain USA300), UniProt A0A0H2XGN0 1-496)
T1 chain: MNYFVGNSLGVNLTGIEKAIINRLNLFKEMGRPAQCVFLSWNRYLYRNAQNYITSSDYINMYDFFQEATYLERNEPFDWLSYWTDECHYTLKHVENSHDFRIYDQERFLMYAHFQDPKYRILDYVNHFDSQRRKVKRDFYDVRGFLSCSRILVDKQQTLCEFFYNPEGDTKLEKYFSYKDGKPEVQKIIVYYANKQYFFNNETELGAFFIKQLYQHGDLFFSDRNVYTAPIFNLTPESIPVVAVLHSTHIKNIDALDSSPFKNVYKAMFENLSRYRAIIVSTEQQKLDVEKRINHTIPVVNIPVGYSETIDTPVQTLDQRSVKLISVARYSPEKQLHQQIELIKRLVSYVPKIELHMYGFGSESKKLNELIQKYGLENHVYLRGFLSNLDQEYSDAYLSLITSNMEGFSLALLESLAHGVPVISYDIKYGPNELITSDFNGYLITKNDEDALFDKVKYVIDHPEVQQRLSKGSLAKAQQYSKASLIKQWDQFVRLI

B1: diGlcNAcylated 9-mer SD-repeat peptide (DSDSDSDSD) (peptide)
peptide: DSDS(βGlcNAc)DSDS(βGlcNAc)D
notes: serine–aspartate repeat as in the SDR domains of staphylococcal SDR proteins (ClfA and others); no one parent protein is named; Asp1 not modelled in the structure; The peptide was added unmodified; also called GlcNAcylated SD-repeat peptide (9-mer); O-GlcNAcylated SDR peptide (9-mer); source: 9-mer peptide soaked into the SdgB crystal with UDP-GlcNAc and glycosylated in the crystal
B2: SdgB (glycosyltransferase, Staphylococcus aureus USA300) (enzyme)
chain: T1 chain
notes: SdgB, O-GlcNAc glycosyltransferase of S. aureus strain USA300, gene SAUSA300_0550, cloned into pET-21a(+); theoretical monomer mass 59.5 kDa; A selenomethionine-substituted form was used only for phasing; also called SdgB_(quaternary); source: E. coli Rosetta 2(DE3)pLysS, purified (HiTrap Chelating, HiTrap Q, Superdex 200)
B3: SdgA (glycosyltransferase, Staphylococcus aureus USA300) (enzyme)
chain: MNYILGTILESKITGVEKAQINRLKLFKQHGISSKCVYVKWNPYSYTYAKQHQIENDVFTMYDYFQKAINYKKTKQVNWIQYWEKSCRYTLKFVENSNDVRIYDEEQFVMYAHFLDKQYHQLNYVNYFDHKRRKVKRELYDGRGFLSCSRILGEGQRIVLENYYTPNGEIVIQKYFDDIKGKNTLTKVILNEDQHQQFFDTEDELVQYFLHQLCKNNDQIILDRPHELGNVIAGLNQSIPVIVVLHSTHLSGAGNGIKSFYKTVFNNLTRYKAIVVSTEKQCQDISQYIENKIPVINIPVGYVANLKYQFDINQKEKNHIISIARLVENKQIKHQIEVIKQLVTKHPNIQLNIYGHGNGLSEYRQLVEDYHLSEHVKFHGFKTHINEEIAKAELMLSTSKMEGFGLAILESLSVGTPVISYDVDYGPSELIQDGFNGYLVPQGDINQMVEKVDQLLNNTQKLQQFSINSIESAQQYNATTISTKWQNILN
notes: SdgA, glycosyltransferase of S. aureus strain USA300, gene SAUSA300_0549, cloned into pET-21a(+); theoretical monomer mass 60.4 kDa; source: E. coli Rosetta 2(DE3)pLysS, purified (HiTrap Chelating, HiTrap Q, Superdex 200)
B4: 5-mer SD-repeat peptide Asp-Ser-Asp-Ser-Asp (DSDSD) (peptide)
peptide: DSDSD
notes: serine–aspartate repeat as in the SDR domains of staphylococcal SDR proteins (ClfA and others); no one parent protein is named; only SDSD was modelled in the structure; also called 5-mer SDR peptide; source: synthetic peptide

Series [1] has as its target T2, SdgB (Staphylococcus aureus, UniProt A0A0H2XGN0).
T2 construct: gene SAUSA300_0550; full-length, C-terminal His6 tag (pET-21a), E. coli Rosetta 2(DE3)pLysS; residues 1-496 compared
Kind of series: MALDI-MS O-GlcNAcyltransferase assay. Format: biochemical. The note with it: 10 mM donor; acceptor DSD or DSDSD 3 mM, 5 uM enzyme, 20 mM HEPES pH 7.5, 150 mM NaCl, 1 mM MgCl2, 37 C, 2 h.

Series [2] has as its target SdgA (glycosyltransferase, Staphylococcus aureus USA300) (Staphylococcus aureus (strain USA300)). Nature of the series: AUC; sedimentation velocity; SdgA at 4.5 µM; 30 000 rev/min.
For series [3] the target is unchanged. Kind of series: AUC; sedimentation equilibrium; SdgB 1 µM, SdgA 4.5 µM; 20 mM HEPES pH 7.5, 150 mM NaCl, 1 mM MgCl2; 9000 and 15 000 rev/min; global fit to a monomer–dimer self-association model (dimer to monomers).
In series [4] the target is T2, SdgB. Kind of series: X-ray crystallography. As to conditions: donor-binding site, closed form.
Series [5] has as its target B2. Kind of series: crystal structure; SdgB crystal (20 mM CaCl2, 85 mM trisodium citrate pH 5.6, 25.5% PEG 4000, 15% glycerol) soaked with 2.66 mM 9-mer SD-repeat peptide and 9.60 mM UDP-GlcNAc for 7.5 h. The note with it: both partners purified.
Series [6] concerns the molecule itself. Nature of the series: SEC-MALS; SdgB 0.22 mg injected; Superdex 200 Increase 10/300 GL; 20 mM Tris–HCl pH 7.5, 200 mM NaCl; 0.5 ml/min. (Size exclusion chromatography separates by hydrodynamic size, large species first.)
Series [7] deals with the molecule itself. Kind of series: AUC; sedimentation equilibrium; SdgB 1 µM, SdgA 4.5 µM; 20 mM HEPES pH 7.5, 150 mM NaCl, 1 mM MgCl2; 9000 and 15 000 rev/min; global fit to a monomer–dimer self-association model (dimer to monomers).
In series [8] the target is T1, SdgB (glycosyltransferase, …). Kind of series: SPR. In general terms: SPR reads the build-up and loss of mass on a sensor chip optically.
The target of series [9] is B2. Kind of series: SPR; SdgB immobilised on a PEG-based sensor chip (1062 RU); SdgA 0.39–25.0 µM as analyte; HBS-EP (10 mM HEPES pH 7.4, 150 mM NaCl, 0.03 mM EDTA, 0.005% Tween 20); 20°C; kinetic fit with Scrubber2. As to conditions: both partners purified.
Series [10] has as its target B2. Nature of the series: crystal structure; SdgB crystal (0.2 M MgCl2, 0.1 M Tris–HCl pH 8.5, 25% PEG 3350) quick-soaked with 6.14 mM UDP and 2.45 mM 5-mer peptide DSDSD for 30 min. As to conditions: both partners purified.

As a reminder, the stoichiometry N is a count of units in the complex or per binding partner. The term Kd denotes the constant that tells how readily two partners part at equilibrium. High values mean a looser complex, low ones a tighter complex. For orientation: koff means the rate constant with which the complex falls apart.

Where no end group is shown, it is not given here. The star is where a group is joined. βGlcNAc = CC(=O)N[C@@H]1[C@@H](O)[C@H](O)[C@@H](CO)O[C@H]1*

In the case of `CC(=O)N[C@H]1[C@@H](OP(=O)(O)OP(=O)(O)OC[C@H]2O[C@@H](n3ccc(=O)[nH]c3=O)[C@H](O)[C@@H]2O)O[C@H](CO)[C@@H](O)[C@@H]1O` [UDP-GlcNAc], the “MALDI-MS O-GlcNAcyltransferase assay” value on SdgB [1] was “converted into mono-GlcNAcylated forms by SdgB but not by SdgA”. In the case of “SdgA (glycosyltransferase, Staphylococcus aureus USA300) (from UniProt A0A0H2XI10 1-490) (enzyme)”, the stoichiometry N in series [2] amounted to 2. Moreover, in series [3], the Kd was found to be 14100 nM. In the case of `CC(=O)N[C@H]1C(O)O[C@H](CO)[C@@H](O)[C@@H]1O` (some centres unmarked) [GlcNAc], the X-ray crystallography result on SdgB [4] (cleaved from soaked UDP-GlcNAc, with UDP and diGlcNAcylated 9-mer) is “distinct electron density for UDP and GlcNAc was observed in the cleft”.

On to `O=c1ccn([C@@H]2O[C@H](COP(=O)(O)OP(=O)(O)O)[C@@H](O)[C@H]2O)c(=O)[nH]1` [UDP], for which the X-ray crystallography entry at SdgB [4] (complex with cleaved GlcNAc and diGlcNAcylated 9-mer, 2.5 A, also seen with DSDSD in a second structure (7VFM)) is “distinct electron density for UDP and GlcNAc was observed in the cleft”. For B1, the binding result in series [5] is recorded as “binds”.

Turning to B2, the “stoichiometry N” value in series [6] came out at 2. For the same molecule, binding in series [7] was put at a Kd of 926 nM. For the molecule B3, the koff in series [8] worked out at 0.000496 s⁻¹. The molecule further yielded a Kd in [9] of 393 nM. On to B4, for which the binding result in [10] was “binds”.
